Our source for the A450 (Indirect ELISA) values is patent publication US20050176933A1.

This experiment has as its target GST-HAb18GE (a fusion of the extracellular domain of hepatoma-associated antigen HAb18G with GST) (human) (UniProt P35613). Put plainly: indirect ELISA on coated GST-HAb18GE; positive control; mean ± S. (In general: An ELISA detects its analyte on a solid surface through an enzyme-linked reagent.)
Sequence of UniProt P35613 (P35613 138-325): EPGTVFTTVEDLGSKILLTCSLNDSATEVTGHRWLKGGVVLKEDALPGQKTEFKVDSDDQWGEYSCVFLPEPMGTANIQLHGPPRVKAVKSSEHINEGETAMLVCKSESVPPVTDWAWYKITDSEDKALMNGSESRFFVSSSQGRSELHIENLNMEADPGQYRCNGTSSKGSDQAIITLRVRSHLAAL

B1: murine anti-human hepatoma McAb HAb18 (antibody, mouse IgG1, V domains shown)
VH: EVKLEESGGGLVQPGGSMKLSCVASGFTFSDAWMDWVRQSPEKGLEWVAEIRSKANNHAPYYTESVKGRFTISRDDSKSIIYLQMNNLRAEDTGIYYCTRDSTATHWGQGTLVTVSS
VL: SIVMTQTPTFLVVSAGDRVTITCKASQSVINDVAWYQQKPGQSPKLLIFYASNRNTGVPDRFTGSGYGTDFTFTISTVQAEDLAVYFCQQDYSPPFTFGSGTKLEIK
modifications: HRP-labelled in the competitive ELISAs
For the molecule B1, the A450 (Indirect ELISA) was 1.02 A450.
